Paper PMC4979544 (Structure (London, England : 1993), 2016)
Ends that are not written are not given here.

B1: A. tumefaciens ClpS2 L28A (natural protein)
chain: MSDSPVDLKPKPKVKPKLERPKLYKVMALNDDYTPREFVTVVLKAVFRMSEDTGRRVMMTAHRFGSAVVVVCERDIAETKAKEATDLGKEAGFPLMFTTEPEE
B2: LRFVQELASKEVC-fluorescein peptide (peptide)
peptide: LRFVQELASKEVC(fluorescein‑5‑maleimide)
B3: A. tumefaciens ClpS2 R36M (natural protein)
chain: MSDSPVDLKPKPKVKPKLERPKLYKVMLLNDDYTPMEFVTVVLKAVFRMSEDTGRRVMMTAHRFGSAVVVVCERDIAETKAKEATDLGKEAGFPLMFTTEPEE

Columns and labels:
Experiment in all cases: fluorescence polarisation
[1] = molecular target: T1, FRFVQELASKEVC-fluorescein peptide
T1 peptide: FRFVQELASKEVC(fluorescein‑5‑maleimide)

[2] = molecular target: T2, YRFVQELASKEVC-fluorescein peptide
T2 peptide: YRFVQELASKEVC(fluorescein‑5‑maleimide)

[3] = molecular target: T3, WRFVQELASKEVC-fluorescein peptide
T3 peptide: WRFVQELASKEVC(fluorescein‑5‑maleimide)

[4] = molecular target: T4, A. tumefaciens ClpS2 (A. tumefaciens, UniProt Q8UD95 1-103, 35S-labeled in the peptide blots only)
T4 sequence (looked up): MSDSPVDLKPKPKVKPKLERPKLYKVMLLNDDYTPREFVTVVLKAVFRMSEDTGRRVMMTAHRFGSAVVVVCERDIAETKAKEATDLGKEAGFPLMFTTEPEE

Row | Binder | ΔΔG against parent ClpS2 [1] [kcal/mol] | ΔΔG against parent ClpS2 [2] [kcal/mol] | ΔΔG against parent ClpS2 [3] [kcal/mol] | Kd [4] [µM]
1 | B1 | 0.91 | -0.26 | 0.3 | –
2 | B2 | – | – | – | > 800
3 | B3 | -0.17 | -0.74 | -0.3 | –
